Experimental findings from the supplement of paper PMC7877785 are described below.

A short description of the series: self-splicing fitness, log relative to wild type (ln ratio); higher = more splicing; Tetrahymena group I intron in knt gene, E. coli kanamycin selection, DiMSum; sequences stand for … in CUCUCU…GGAGGGAAAAGUUAUCAGGCAUGCACCUGGUAGCUAGUCUUUAAACCAAUAGAUUGCAUCGGUUUAAAAGGCAAGACCGUCAAAUUGCGGGAAAGGGGUCAACAGCCGUUCAGUACCAAGUCUCAGGGGAAACUUUGAGAUGGCCUUGCAAAGGGUAUGGUAAUAAGCUGACGGACAUGGUCCUAACCACGCAGCCAAGUCCUAAGUCAACAGAUCUUCUGUUGAUAUGGAUGCAGUUCACAGACUAAAUGUCGGUCGGGGAAGAUGUAUUCUUCUCAUAAGAUAUAGUCGGACCUCUCCUUAAUGGGAGCUAGCGGAUGAAGUGAUGCAACACUGGAGCCGCUGGGAACUAAUUUGUAUGCGAAAGUAUAUUGAUUAGUUUUGGAGUACUCGUGGUCG
In outline: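 The eight P1ex-region nucleotides of an intron in the knt kanamycin-resistance gene on pET-22b(+) were all randomised and the library put into E. coli BL21(DE3). Six replicate transformations were grown overnight at 37°C or 30°C on LB agar with or without 25 μg/mL kanamycin, together with 100 μg/mL carbenicillin, 50 μM IPTG and 0.2% rhamnose. Colonies were pooled and amplicon-sequenced on an Illumina HiSeq 2500. Fitness from DiMSum is the error-weighted combination of wild-type-normalised replicate fold changes, kanamycin over none.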

± gives the uncertainty stated by the source.

Turning to CGUGAGCAAUAUUACGGGGU, the “self-splicing fitness (ln)” value by setting is: (30 °C) -3.62 ± 0.2; (37 °C) -3.32 ± 0.26.

Regarding CGUGAGCAAUAUUACGGUAG, the “self-splicing fitness (ln)” value was -1.84 ± 0.11 (30 °C) and -1.11 ± 0.11 (37 °C).

Turning to CGUGAGCAAUAUUACGGUAU, the “self-splicing fitness (ln)” value is, setting by setting: (30 °C) -3.54 ± 0.25; (37 °C) -3.1 ± 0.34.

Turning to CGUGAGCAAUAUUACGGUGC, the “self-splicing fitness (ln)” value by setting is: (30 °C) -4.97 ± 0.41; (37 °C) -3.39 ± 0.17.

On to CGUGAGCAAUAUUACGGUGU, for which the “self-splicing fitness (ln)” value was -3.79 ± 0.43 (30 °C) and -1.98 ± 0.22 (37 °C).

With CGUGAGCAAUAUUACGUAGA, the “self-splicing fitness (ln)” value (30 °C) is -3.22 ± 0.2 and the “self-splicing fitness (ln)” value (37 °C) is -2.89 ± 0.22.

As to CGUGAGCAAUAUUACGUAGU, the “self-splicing fitness (ln)” value is, setting by setting: (30 °C) -4.5 ± 0.36; (37 °C) -2.19 ± 0.2.

Consider CGUGAGCAAUAUUACGUCAG, for which the “self-splicing fitness (ln)” value is, setting by setting: (30 °C) -1.86 ± 0.16; (37 °C) -0.364 ± 0.15.

Consider CGUGAGCAAUAUUACGUCGG, for which the “self-splicing fitness (ln)” value by setting is: (30 °C) -0.475 ± 0.11; (37 °C) -0.606 ± 0.12.

For the sequence CGUGAGCAAUAUUACGUCUA, the “self-splicing fitness (ln)” value is, setting by setting: (30 °C) -2.99 ± 0.37; (37 °C) -1.59 ± 0.21.

CGUGAGCAAUAUUACGUGCC: the “self-splicing fitness (ln)” value (37 °C) is -1.78 ± 0.39.

In the case of CGUGAGCAAUAUUACGUGCG, the “self-splicing fitness (ln)” value by setting is: (30 °C) -3.21 ± 0.24; (37 °C) -2.6 ± 0.32.

On to CGUGAGCAAUAUUACGUGGG, for which the “self-splicing fitness (ln)” value reads like this: (30 °C) -2.91 ± 0.14; (37 °C) -1.99 ± 0.11.

CGUGAGCAAUAUUACGUUAA: the “self-splicing fitness (ln)” value is -4 ± 0.31 (30 °C) and -3.55 ± 0.3 (37 °C).

On to CGUGAGCAAUAUUACGUUCC, for which the “self-splicing fitness (ln)” value (30 °C) was -3.37 ± 0.31.

As for CGUUAGCAAUAUUACGCAAC, the “self-splicing fitness (ln)” value is -2.61 ± 0.49 (30 °C) and -2.01 ± 0.35 (37 °C).

Regarding CGUUAGCAAUAUUACGCACA, the “self-splicing fitness (ln)” value runs as follows: (30 °C) -1.33 ± 0.17; (37 °C) -0.0289 ± 0.28.

On to CGUUAGCAAUAUUACGCAGG, for which the “self-splicing fitness (ln)” value by setting is: (30 °C) -1.3 ± 0.1; (37 °C) -1.26 ± 0.16.

In the case of CGUUAGCAAUAUUACGCAGU, the “self-splicing fitness (ln)” value (37 °C) was -2.29 ± 0.37.

As for CGUUAGCAAUAUUACGCAUA, the “self-splicing fitness (ln)” value (37 °C) was -1.37 ± 0.23.

On to CGUUAGCAAUAUUACGCCUC, for which the “self-splicing fitness (ln)” value (30 °C) is -3.03 ± 0.49 and the “self-splicing fitness (ln)” value (37 °C) is -2.48 ± 0.32.

As to CGUUAGCAAUAUUACGCGCC, the “self-splicing fitness (ln)” value reads like this: (30 °C) -2.21 ± 0.39; (37 °C) -1.05 ± 0.27.

On to CGUUAGCAAUAUUACGGAAG, for which the “self-splicing fitness (ln)” value was -1.02 ± 0.12 (30 °C) and -0.829 ± 0.12 (37 °C).

For the sequence CGUUAGCAAUAUUACGGACC, the “self-splicing fitness (ln)” value runs as follows: (30 °C) -0.382 ± 0.14; (37 °C) 0.675 ± 0.16.

For the sequence CGUUAGCAAUAUUACGGAGA, the “self-splicing fitness (ln)” value (30 °C) was -2.64 ± 0.4 and the “self-splicing fitness (ln)” value (37 °C) is -1.53 ± 0.43.

In the case of CGUUAGCAAUAUUACGGAGC, the “self-splicing fitness (ln)” value was -3.81 ± 0.47 (30 °C) and -1.35 ± 0.47 (37 °C).

For the sequence CGUUAGCAAUAUUACGGCCG, the “self-splicing fitness (ln)” value was -1.84 ± 0.41 (30 °C) and -0.176 ± 0.35 (37 °C).

Turning to CGUUAGCAAUAUUACGGGCG, the “self-splicing fitness (ln)” value (30 °C) was -3.04 ± 0.24 and the “self-splicing fitness (ln)” value (37 °C) was -2.38 ± 0.3.

Take CGUUAGCAAUAUUACGGUAA: the “self-splicing fitness (ln)” value reads like this: (30 °C) -1.58 ± 0.26; (37 °C) -0.129 ± 0.28.

As to CGUUAGCAAUAUUACGGUUG, the “self-splicing fitness (ln)” value (30 °C) was -0.758 ± 0.11 and the “self-splicing fitness (ln)” value (37 °C) is 0.388 ± 0.13.

With CGUUAGCAAUAUUACGUACC, the “self-splicing fitness (ln)” value by setting is: (30 °C) -1.39 ± 0.15; (37 °C) -1.09 ± 0.18.

Consider CGUUAGCAAUAUUACGUAGG, for which the “self-splicing fitness (ln)” value is -0.104 ± 0.093 (30 °C) and -0.845 ± 0.14 (37 °C).

Take CGUUAGCAAUAUUACGUGUA: the “self-splicing fitness (ln)” value reads like this: (30 °C) -3.37 ± 0.25; (37 °C) -3.03 ± 0.34.

As to CUAAAGCAAUAUUACGACCA, the “self-splicing fitness (ln)” value runs as follows: (30 °C) -2.78 ± 0.23; (37 °C) 0.487 ± 0.23.

CUAAAGCAAUAUUACGAGCC: the “self-splicing fitness (ln)” value (30 °C) was -1.33 ± 0.18 and the “self-splicing fitness (ln)” value (37 °C) was -0.475 ± 0.44.

In the case of CUAAAGCAAUAUUACGAGUG, the “self-splicing fitness (ln)” value (30 °C) is 0.178 ± 0.047 and the “self-splicing fitness (ln)” value (37 °C) was 0.456 ± 0.077.

Turning to CUAAAGCAAUAUUACGAUAA, the “self-splicing fitness (ln)” value was -2.17 ± 0.14 (30 °C) and -0.422 ± 0.12 (37 °C).

For CUAAAGCAAUAUUACGAUGU, the “self-splicing fitness (ln)” value (30 °C) is -3.84 ± 0.18 and the “self-splicing fitness (ln)” value (37 °C) is -2.58 ± 0.2.

In the case of CUAAAGCAAUAUUACGCAAC, the “self-splicing fitness (ln)” value (30 °C) was -3.32 ± 0.29 and the “self-splicing fitness (ln)” value (37 °C) is -3.03 ± 0.38.
